# According to US20040259802:
# T1: 19-mer (SEQ ID NO:11) cleavage domain peptide
# T1 chain: PRCGNPDVANYNFFPRKPK
# Target: T1, 19-mer (SEQ ID NO:11) cleavage domain …
protein,measurement,value
Proenzyme pro-MMP-9 (protein) APRQRQSTLVLFPGDLRTNLTDRQLAEEYLYRYGYTRVAEMRGESKSLGPALLLLQKQLSLPETGELDSATLKAMRTPRCGVPDLGRFQTFEGDLKWHHHNITYWIQNYSEDLPRAVIDDAFARAFALWSAVTPLTFTRVYSRDADIVIQFGVAEHGDGYPFDGKDGLLAHAFPPGPGIQGDAHFDDDELWSLGKGVVVPTRFGNADGAACHFPFIFEGRSYSACTTDGRSDGLPWCSTTANYDTDDRFGFCPSERLYTQDGNADGKPCQFPFIFQGQSYSACTTDGRSDGYRWCATTANYDRDKLFGFCPTRADSTVMGGNSAGELCVFPFTFLGKEYSTCTSEGRGDGRLWCATTSNFDSDKKWGFCPDQGYSLFLVAAHEFGHALGLDHSSVPEALMYPMYRFTEGPPLHKDDVNGIRHLYGPRPEPEPRPPTTTTPQPTAPPTVCPTGPPTVHPSERPTAGPTGPPSAGPTGPPTAGPSTATTVPLSPVDDACNVNIFDAIAEIGNQLYLFKDGKYWRFSEGRGSRPQGPFLIADKWPALPRKLDSVFEERLSKKLFFFSGRQVWVYTGASVLGPRRLDKLGLGADVAQVTGALRSGRGKMLLFSGRRLWRFDVKAQMVDPRSASEVDRMFPGVPLDTHDVFQYREKAYFCQDRFYWRVSSRSELNQVDQVGYVTYDILQCPED,conversion of pro-MMP-9 into prodomain and active enzyme by stromilysin (HPLC splicing assay),Titrating the standard splicing reaction with the 19-mer (SEQ ID NO:11) peptide prevents the conversion of pro-MMP-9 into the prodomain and the active enzyme. Splicing can be inhibited in a dose dependent manner with micromolar 19-mer
